Data: patent publication US20240261333A1, “NOVEL TARGETS FOR ENHANCING ANTI-TUMOR IMMUNITY” (THE BROAD INSTITUTE, INC., priority 2021, published 2024)

T1: B3GNT2 (Homo sapiens, UniProt Q9NY97)
T1 construct: The respective ORFs of candidate genes [CD274 (NM_014143), MCL1 (NM_021960), JUNB (NM_002229), and B3GNT2 (NM_006577)] were synthesized; expressed in transfected cells; host or cells: A375 melanoma cells (lentiviral ORF overexpression)
T1 sequence (Q9NY97 1-397): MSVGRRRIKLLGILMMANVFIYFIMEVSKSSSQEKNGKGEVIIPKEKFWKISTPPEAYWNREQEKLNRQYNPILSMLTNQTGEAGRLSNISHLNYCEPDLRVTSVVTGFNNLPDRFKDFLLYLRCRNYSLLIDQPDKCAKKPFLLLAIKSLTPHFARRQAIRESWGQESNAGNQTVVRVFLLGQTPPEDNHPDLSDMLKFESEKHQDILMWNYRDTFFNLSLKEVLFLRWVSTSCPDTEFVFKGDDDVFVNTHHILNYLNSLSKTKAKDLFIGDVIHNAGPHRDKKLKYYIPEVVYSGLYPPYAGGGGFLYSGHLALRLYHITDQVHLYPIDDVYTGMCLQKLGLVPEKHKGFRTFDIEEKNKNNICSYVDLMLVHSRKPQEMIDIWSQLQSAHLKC

B1: ACSL3 (protein)
chain: MNNHVSSKPSTMKLKHTINPILLYFIHFLISLYTILTYIPFYFFSESRQEKSNRIKAKPVNSKPDSAYRSVNSLDGLASVLYPGCDTLDKVFTYAKNKFKNKRLLGTREVLNEEDEVQPNGKIFKKVILGQYNWLSYEDVFVRAFNFGNGLQMLGQKPKTNIAIFCETRAEWMIAAQACFMYNFQLVTLYATLGGPAIVHALNETEVTNIITSKELLQTKLKDIVSLVPRLRHIITVDGKPPTWSEFPKGIIVHTMAAVEALGAKASMENQPHSKPLPSDIAVIMYTSGSTGLPKGVMISHSNIIAGITGMAERIPELGEEDVYIGYLPLAHVLELSAELVCLSHGCRIGYSSPQTLADQSSKIKKGSKGDTSMLKPTLMAAVPEIMDRIYKNVMNKVSEMSSFQRNLFILAYNYKMEQISKGRNTPLCDSFVFRKVRSLLGGNIRLLLCGGAPLSATTQRFMNICFCCPVGQGYGLTESAGAGTISEVWDYNTGRVGAPLVCCEIKLKNWEEGGYFNTDKPHPRGEILIGGQSVTMGYYKNEAKTKADFFEDENGQRWLCTGDIGEFEPDGCLKIIDRKKDLVKLQAGEYVSLGKVEAALKNLPLVDNICAYANSYHSYVIGFVVPNQKELTELARKKGLKGTWEELCNSCEMENEVLKVLSEAAISASLEKFEIPVKIRLSPEPWTPETGLVTDAFKLKRKELKTHYQADIERMYGRK
B2: TUBA1C (protein, UniProt Q9BQE3 1-449, looked up)
Tubulin alpha-1C chain: MRECISIHVGQAGVQIGNACWELYCLEHGIQPDGQMPSDKTIGGGDDSFNTFFSETGAGKHVPRAVFVDLEPTVIDEVRTGTYRQLFHPEQLITGKEDAANNYARGHYTIGKEIIDLVLDRIRKLADQCTGLQGFLVFHSFGGGTGSGFTSLLMERLSVDYGKKSKLEFSIYPAPQVSTAVVEPYNSILTTHTTLEHSDCAFMVDNEAIYDICRRNLDIERPTYTNLNRLISQIVSSITASLRFDGALNVDLTEFQTNLVPYPRIHFPLATYAPVISAEKAYHEQLTVAEITNACFEPANQMVKCDPRHGKYMACCLLYRGDVVPKDVNAAIATIKTKRTIQFVDWCPTGFKVGINYQPPTVVPGGDLAKVQRAVCMLSNTTAVAEAWARLDHKFDLMYAKRAFVHWYVGEGMEEGEFSEAREDMAALEKDYEEVGADSADGEDEGEEY
B3: HLA-A (protein)
MHC heavy: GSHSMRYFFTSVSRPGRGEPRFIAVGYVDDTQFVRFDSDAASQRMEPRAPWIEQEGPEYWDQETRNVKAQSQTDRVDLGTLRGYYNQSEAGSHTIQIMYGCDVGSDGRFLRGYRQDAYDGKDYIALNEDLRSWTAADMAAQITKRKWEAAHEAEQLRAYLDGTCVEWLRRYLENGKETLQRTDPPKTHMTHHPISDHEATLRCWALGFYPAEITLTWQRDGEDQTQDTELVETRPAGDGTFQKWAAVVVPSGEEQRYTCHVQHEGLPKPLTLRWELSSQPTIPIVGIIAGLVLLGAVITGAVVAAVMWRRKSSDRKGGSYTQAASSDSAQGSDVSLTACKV
B4: MYO1D (protein)
chain: AEQESLEFGKADFVLMDTVSMPEFMANLRLRFEKGRIYTFIGEVVVSVNPYKLLNIYGRDTIEQYKGRELYERPPHLFAIADAAYKAMKRRSKDTCIVISGESGAGKTEASKYIMQYIAAITNPSQRAEVERVKNMLLKSNCVLEAFGNAKTNRNDNSSRFGKYMDINFDFKGDPIGGHINNYLLEKSRVIVQQPGERSFHSFYQLLQGGSEQMLRSLHLQKSLSSYNYIHVGAQLKSSINDAAEFRVVADAMKVIGFKPEEIQTVYKILAAILHLGNLKFVVDGDTPLIENGKVVSIIAELLSTKTDMVEKALLYRTVATGRDIIDKQHTEQEASYGRDAFAKAIYERLFCWIVTRINDIIEVKNYDTTIHGKNTVIGVLDIYGFEIFDNNSFEQFCINYCNEKLQQLFIQLVLKQEQEEYQREGIPWKHIDYFNNQIIVDLVEQQHKGIIAILDDACMNVGKVTDEMFLEALNSKLGKHAHFSSRKLCASDKILEFDRDFRIRHYAGDVVYSVIGFIDKNKDTLFQDFKRLMYNSSNPVLKNMWPEGKLSITEVTKRPLTAATLFKNSMIALVDNLASKEPYYVRCIKPNDKKSPQIFDDERCRHQVEYLGLLENVRVRRAGFAFRQTYEKFLHRYKMISEFTWPNHDLPSDKEAVKKLIERCGFQDDVAYGKTKIFIRTPRTLFTLEELRAQMLIRIVLFLQKVWRGTLARMRYKRTKAALTIIRYYRRYKVKSYIHEVARRFHGVKTMRDYGKHVKWPSPPKVLRRFEEALQTIFNRWRASQLIKSIPASDLPQVRAKVAAVEMLKGQRADLGLQRAWEGNYLASKPDTPQTSGTFVPVANELKRKDKYMNVLFSCHVRKVNRFSKVEDRAIFVTDRHLYKMDPTKQYKVMKTIPLYNLTGLSVSNGKDQLVVFHTKDNKDLIVCLFSKQPTHESRIGELVGVLVNHFKSEKRHLQVNVTNPVQCSLHGKKCTVSVETRLNQPQPDFTKNRSGFILSVPGN
B5: SLC25A10 (protein)
chain: MAAEARVSRWYFGGLASCGAACCTHPLDLLKVHLQTQQEVKLRMTGMALRVVRTDGILALYSGLSASLCRQMTYSLTRFAIYETVRDRVAKGSQGPLPFHEKVLLGSVSGLAGGFVGTPADLVNVRMQNDVKLPQGQRRNYAHALDGLYRVAREEGLRRLFSGATMASSRGALVTVGQLSCYDQAKQLVLSTGYLSDNIFTHFVASFIAAAGDEPPPQGGCATFLCQPLDVLKTRLMNSKGEYQGVFHCAVETAKLGPLAFYKGLVPAGIRLIPHTVLTFVFLEQLRKNFGIKVPS
B6: TM9SF3 (protein)
chain: DEHEHTYQDKEEVVLWMNTVGPYHNRQETYKYFSLPFCVGSKKSISHYHETLGEALQGVELEFSGLDIKFKDDVMPATYCEIDLDKEKRDAFVYAIKNHYWYQMYIDDLPIWGIVGEADENGEDYYLWTYKKLEIGFNGNRIVDVNLTSEGKVKLVPNTKIQMSYSVKWKKSDVKFEDRFDKYLDPSFFQHRIHWFSIFNSFMMVIFLVGLVSMILMRTLRKDYARYSKEEEMDDMDRDLGDEYGWKQVHGDVFRPSSHPLIFSSLIGSGCQIFAVSLIVIIVAMIEDLYTERGSMLSTAIFVYAATSPVNGYFGGSLYARQGGRRWIKQMFIGAFLIPAMVCGTAFFINFIAIYYHASRAIPFGTMVAVCCICFFVILPLNLVGTILGRNLSGQPNFPCRVNAVPRPIPEKKWFMEPAVIVCLGGILPFGSIFIEMYFIFTSFWAYKIYYVYGFMMLVLVILCIVTVCVTIVCTYFLLNAEDYRWQWTSFLSAASTAIYVYMYSFYYYFFKTKMYGLFQTSFYFGYMAVFSTALGIMCGAIGYMGTSAFVRKIYTNVKID
B7: SFXN3 (protein)
chain: MGELPLDINIQEPRWDQSTFLGRARHFFTVTDPRNLLLSGAQLEASRNIVQNYRAGVVTPGITEDQLWRAKYVYDSAFHPDTGEKVVLIGRMSAQVPMNMTITGCMLTFYRKTPTVVFWQWVNQSFNAIVNYSNRSGDTPITVRQLGTAYVSATTGAVATALGLKSLTKHLPPLVGRFVPFAAVAAANCINIPLMRQRELQVGIPVADEAGQRLGYSVTAAKQGIFQVVISRICMAIPAMAIPPLIMDTLEKKDFLKRRPWLGAPLQVGLVGFCLVFATPLCCALFPQKSSIHISNLEPELRAQIHEQNPSVEVVYYNKGL
B8: DNAJA3 (protein)
chain: GVSLTGTKHNPFICTASFHTSAPLAKEDYYQILGVPRNASQKEIKKAYYQLAKKYHPDTNKDDPKAKEKFSQLAEAYEVLSDEVKRKQYDAYGSAGFDPGASGSQHSYWKGGPTVDPEELFRKIFGEFSSSSFGDFQTVFDQPQEYFMELTFNQAAKGVNKEFTVNIMDTCERCNGKGNEPGTKVQHCHYCGGSGMETINTGPFVMRSTCRRCGGRGSIIISPCVVCRGAGQAKQKKRVMIPVPAGVEDGQTVRMPVGKREIFITFRVQKSPVFRRDGADIHSDLFISIAQALLGGTARAQGLYETINVTIPPGTQTDQKIRMGGKGIPRINSYGYGDHYIHIKIRVPKRLTSRQQSLILSYAEDETDVEGTVNGVTLTSSGKRSTGN
B9: SLC25A22 (protein)
chain: MADKQISLPAKLINGGIAGLIGVTCVFPIDLAKTRLQNQQNGQRVYTSMSDCLIKTVRSEGYFGMYRGAAVNLTLVTPEKAIKLAANDFFRHQLSKDGQKLTLLKEMLAGCGAGTCQVIVTTPMEMLKIQLQDAGRIAAQRKILAAQGQLSAQGGAQPSVEAPAAPRPTATQLTRDLLRSRGIAGLYKGLGATLLRDVPFSVVYFPLFANLNQLGRPASEEKSPFYVSFLAGCVAGSAAAVAVNPCDVVKTRLQSLQRGVNEDTYSGILDCARKILRHEGPSAFLKGAYCRALVIAPLFGIAQVVYFLGIAESLLGLLQDPQA

Target: T1, B3GNT2
Test: Co-IP of FLAG-tagged B3GNT2 followed by mass spectrometry
Assay type: cell-based
Design: C-term IgG / C-term flag: unit not given here
Settings: mass spectrometry count, unit not given; for C-term flag / N-term FLAG: Co-IP with FLAG antibody; for C-term flag / C-term IgG: C-terminally FLAG-tagged B3GNT2; for N-term FLAG / N-term IgG: N-terminally FLAG-tagged B3GNT2; for C-term IgG / N-term IgG: Co-IP with IgG control antibody
Outline: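 Co-purifying proteins were identified by fractionated nano-LC–MS/MS on an Orbitrap Elite, run data-dependent. Beforehand, lysates in 1% Triton X-100/HEPES buffer were incubated overnight at 4° C with anti-FLAG or […] and pulled down on Protein A/G magnetic beads for 4 h. Duplicate biological replicates.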

Molecule	C-term flag	N-term FLAG	C-term IgG	N-term IgG
B1	5	5	0	0
B2	63	76	14	8
B3	4	6	0	0
B4	2	0	0	0
B5	6	5	0	0
B6	11	0	0	0
B7	2	0	0	0
B8	2	0	0	0
B9	2	0	0	0
